Experimental data taken from the supplement of paper PMC9170038.

Test system: K4 kissing-loop RNA reporter
Assay: apparent KD of K4 kissing-loop reporter; higher = weaker reporter binding
Conditions: Eterna round: R107
Method: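 RNA-MaP round R107: designed RNA switches with theophylline, tryptophan, arginine or FMN aptamers are transcribed on-chip within common flanks. They are titrated with a labelled K4 kissing-loop RNA reporter in RNA-MaP buffer (100 mM Tris pH 7.5, 80 mM KCl, 4 mM MgCl2), without ligand or with the indicated ligand. Median apparent KD per design.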

[1] = input ligand: theophylline 20 uM
[2] = input ligand: tryptophan 2.4 mM
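Note: bound reporter read as fluorescence of individual clusters on recovered sequencing chips by microscopy, with normalized cluster intensities fitted with a binding model.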

Sequence | apparent KD of K4 kissing-loop reporter (input ligand: FMN 200 uM) | apparent KD of K4 kissing-loop reporter (input ligand: arginine 13.2 mM) | apparent KD of K4 kissing-loop reporter (input ligand: none) | apparent KD of K4 kissing-loop reporter [1] | apparent KD of K4 kissing-loop reporter [2]
AGACUACUGACAGGAUAUAACAUCCUAGUCGUAUACCGAAAGGUAUACGAUUCCCUUCUAGUGAUGUUAGAAGGGUCGGUAGUCA [Omei KL FMN B Exc B v13] | 151 nM | 93.4 nM | 103 nM | 98.9 nM | 101 nM
AGACUACUGACAGGAUAUGGCAUCCUGGUCGUAUACCGAAAGGUAUACGAUUUUCUUCUAGUGAUGUUAGAAGGGUCGGUAGUCA [Omei KL FMN B Exc B v15] | 128 nM | 86.3 nM | 97.3 nM | 89.2 nM | 92.7 nM
AGACUACUGAUAGGAUAUAACAUACUAGCUCGUAUACCAAAGGUAUACGAGCUCCUUCUAGUGAUGUUAGAAGGGUCGGUAGUCA [Omei KL FMN B Exc B v4] | 107 nM | 101 nM | 106 nM | 99.6 nM | 102 nM
AGACUUCACCGAAGGAGCGACGUAGCCUAGUGAUGUUAGGCACGAGAGAAAUCUCGUAUACGUCAGGUAGGUCGCGGUGAAGUCA [Omei KL Arginine B SS C v1] | 196 nM | 138 nM | 161 nM | 171 nM | 161 nM
AGAGUACGAAAGUACUCCUCUACACACUGCCGAGGACCGGUACGGCCGCCACUCGAGUUGAGUGAUGUUCGACAGUGUGUAGAGA [Omei KL Tryp A SS C v2] | 114 nM | 56.2 nM | 79 nM | 132 nM | 128 nM
AGAGUGAUGUUUUUUUGAAGUGAGUAAUGUCGAGGACCGGUACGGCCGCCACUCGAGUGAUGUUAGUGAUGUUGAUGUAGUGAUG [?lmullin] | 138 nM | 61.3 nM | 72.4 nM | 137 nM | 127 nM
AGAGUUAUGAGAGGAUAUGCGGCUAGUACUCAAAGAGUACUAGCAGCGGAGUGAUGUUCUGCGAAAGCAGAAGGUUCAUAACUCA [#08 K4 FMN B Same State] | 214 nM | 622 nM | 1710 nM | 1110 nM | 1050 nM
AGAUAGGGCUGAAGGAGCGUCGGAGAAGAGAAGAAGGAAUCCAGUGAUGUUGGAUAGAUCCGACAGGUAGGUCGCAGUUUUAUGA [hbob_SS_Arginine_B_2t139] | 125 nM | 127 nM | 133 nM | 178 nM | 124 nM
AGAUGGAAUAGAAGGAGCGGCGCCAGUGAUGUUGGAUGCCGCGGGUGAAUCAUGUCAUAGUGCCAGGUAGGUCGCUAUUUCAGCU [Beinveve] | 104 nM | 98.1 nM | 96.6 nM | 103 nM | 90.8 nM
AGAUUCGACACGGCCGCCACUCGUGGAUCUUGGUUGAGAGAUGAAAUAGAGUGAUGUUCUAAUACGAGGACCGGGUGUUGAGUCU [KL-SSTryp-B23] | 221 nM | 165 nM | 200 nM | 177 nM | 174 nM
AGAUUCGACACGGCCGCCACUUCCAGUGGUCGGUGUCAUGGUGCACAUGAGUGAUGUUCAUGUGGAAGGACCGGGUGUUGAGUCU [KL-XTryp-B3 #analogue] | 111 nM | 91.4 nM | 103 nM | 108 nM | 165 nM
AGCCGAAAGGCGAGUGCUGUCACUCCGGAAGGAGCGCAGGAAACUGCAGGUAGGUCGCCGGAGUGAUGUUCCGGUGCAGCACUCA [Omei KL Arginine A Exc B v6] | 614 nM | 317 nM | 1120 nM | 561 nM | 800 nM
AGCGGCCAGUCGGCCGCCACUCCAAGCAGUGAUGUUGCUAAGUUUCUACAAGAGUGAUGUUCUUAGAGGACCGGGACUGAUGUGA [Exclusion Tryptophan B Gf 7] | 192 nM | 240 nM | 211 nM | 241 nM | 157 nM
AGCUCAGAGUGACUCGAUAAGAGUCACAAACGAGGACCGGUACGGCCGCCACUCGAAAUAAAGAGAGUGAUGUUCUCGCUGAGCA [FiskerMod 9 - Jieux - Same State Tryptophan A] | 200 nM | 211 nM | 223 nM | 239 nM | 795 nM
AGCUGUGGCAGAAGGAGCGGCAGUUAUUCUGAUAGUACUCUGAGUGAUGUUCAGAACGACUGUCAGGUAGGUCGCUGUCACAGCU [#02 K4 Arginine B Exclusion] | 252 nM | 252 nM | 234 nM | 206 nM | 218 nM
AGCUUGGGUUCGGCCGCCACUCCACCCUUAGAAGUGAUGUUUCUCAUGCAUACGCGUCGUCAGAUGAGGACCGGGAAUGUAGUUG [theeternabot_exclusion_KL_Trp_B_24] | 209 nM | 444 nM | 354 nM | 351 nM | 214 nM

Sequence | apparent KD of K4 kissing-loop reporter (input ligand: FMN 200 uM) | apparent KD of K4 kissing-loop reporter (input ligand: arginine 13.2 mM) | apparent KD of K4 kissing-loop reporter (input ligand: none) | apparent KD of K4 kissing-loop reporter [1] | apparent KD of K4 kissing-loop reporter [2]
AGGAGCGUGCGAUGGAAAUCGCACGCUCCUCGAGGACCGGUACGGCCGCCACUCGCUCGCGCCGAGUGAUGUUCGGCCGGCGAAG [#2 Same State - Tryptophan A Attempt #16 (HarryS)] | 85.6 nM | 128 nM | 85.7 nM | 58.6 nM | 82.8 nM
AGGAUCCGUCGACAAAAGUCGACAUAAUCCAAGGAUAUGACGAAAGUCAGAAGGUGGACAUAAGUCCAGUGAUGUUGGAGGAUCC [FmnA 16 #SwitchBubble #K4Late] | 766 nM | 283 nM | 427 nM | 557 nM | 351 nM
AGGAUGUAGUGAUGUUAUAUAAGAAGUAAACGAGGACCGGUACGGCCGCCACUCGAAGCGGCUACUAGCGCGUUGCGAGGUGCGC [ExTryptoA.Cc] | 391 nM | 451 nM | 372 nM | 370 nM | 286 nM
AGGCACGAGCAAGGAUAUCGAGUGGAGUGAUGUUCUGCCGACCCAGGACCGCAAGGUCCUGGGUCGCGAGAAGGUGCUCGUGCCU [#2 Same State - FMN A Attempt #5 (HarryS)] | 254 nM | 642 nM | 730 nM | 676 nM | 685 nM
AGGGCGGAGUGAUGUUCCGGCUCCCGAUUUAAGGAUAUUGCGUAAACAAGAAGGUAAAGGCGCAGCAAUAUUAUUUCGUAAGGCG [theeternabot_exclusion_KL_FMN_A_23] | 85.5 nM | 103 nM | 93.7 nM | 111 nM | 79.1 nM
AGGUACAAAAGUACCGCUAGAUCCACGGAAGGAGCGCCCGAAAGGGCAGGUAGGUCGCCGGGCAGUGAUGUUGCCGGAUCUAGCA [Omei KL Arginine A SS A v6] | 162 nM | 163 nM | 156 nM | 181 nM | 139 nM
AGGUCUGCACGAAGGAGCGCCCUGACAGGUUGCUGCCGUGGGCAGUGAUGUUGCUCAGUCCGGCAGGUAGGUCGCGUGCAGACCU | 136 nM | 109 nM | 123 nM | 97.5 nM | 161 nM
AGUACAAUGGCGGCCGCCACUCAAUGGGCGACCGAAAGGUCGCAUCACUCAGUGAUGUUGAGUGAGAGGACCGGGCCUUUGUACA [Omei KL Tryp B SS B v8] | 733 nM | 497 nM | 611 nM | 595 nM | 270 nM
AGUAGUUGGACGGCCGCCACUGGAACAGCUUUGCCAAAGGCAGAGCACUAGAGUGAUGUUCUAGCUAGGACCGGGUCCAACUACA [whbob_SS_Tryp_B_t16] | 338 nM | 89.7 nM | 440 nM | 249 nM | 882 nM
AGUAUGUAAUAUGGCAUAUUUAGAACUGAAGGAGCGCCGAAUAAGGCAGGUAGGUCGCGGAAUCAUGAGUGAUGUUCAUGACUAU [KL-SSArg-A26] | 80.6 nM | 116 nM | 123 nM | 126 nM | 91.1 nM
AGUCCACUCUAAAGAGUGGACCUAAGGGAUACCAGUGAUGUUGGUCACCCUUGGCAGCCCACUGUCAUCGAUAAAGAUGGCAGCA | 119 nM | 106 nM | 113 nM | 117 nM | 117 nM
AGUGAACGAGCGGCCGCCACUAAAUGAGUGAUGUUCGUGAGUAGUGCUGUUGUCAUGAUUGUUUUUAGGACCGGGUUCGAUGUUG [popplmullin] | 719 nM | 735 nM | 1270 nM | 963 nM | 719 nM
AGUGAGUGAUGUUCACUGUACGUGUCUGAAGGAGCGACAUCGAUGUCAGGUAGGUCGCAGACAUGUCAUCUAUGGUGCGUGACCA [Arg A SS t10] | 124 nM | 116 nM | 129 nM | 163 nM | 118 nM
AGUGAUGUAUGGCGGUUUGUCACUUAUAAUCAGGAUAUAUAAACAAAUAGAAGGGAUGGCGGAGUGAUGUUCCGCCGGCCGCCAU [FMN A Exl V5] | 170 nM | 136 nM | 167 nM | 172 nM | 149 nM
AGUGCACUGUCAGGAUAUAUACAGUGAUGUUGUGUAUGUCAGCAAGUCAAAGACUUGCUUUUCUGUGUAGAAGGGACUGUGUACA [Omei KL FMN B Exc A v2] | 387 nM | 134 nM | 154 nM | 141 nM | 148 nM
AGUGUGCAAAAGCACACUCAGUACAAGGACAAGGAUAUCUACUAAUAGAGAAGGUGUCCUUUCCUUAGUGAUGUUAAGGAGCUGA [Omei KL FMN A SS D v2] | 177 nM | 295 nM | 339 nM | 347 nM | 368 nM
